# In the nanobody polyreactivity screen of Harvey et al. (2022):
# Assay: yeast display, Sf9 membrane polyspecificity reagent, FACS + sequencing; frameworks hold sequencing errors
# How it was run: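 A nanobody's polyreactivity label depends on the gate it was sorted from. Yeast display cells were stained with 10% biotinylated, detergent-solubilized Sf9 membrane reagent for 1 hour at 4 °C, enriched on streptavidin microbeads and sorted by FACS. The low and high (top ~1%) gates were set on anti-HA fluorescence for expression and streptavidin fluorescence for reagent binding.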
row,Sequence,polyreactivity (PSR sort gate)
1,QVQLVESAGGLVQAGGSLRLICAASGRIFGGNTRGWYREAPGKERELGASIRSRGGRTNYADSLNGRFTISRDTAKNTVYLQMNSLQPEDTSVYYCDATQIYRFDYWGQGTQVTVSS,low polyreactivity
2,QVQLVESAGGLVQAGGSLRLICAATGRIYEIYAMGWYRQAPGTERELVATIDSGGSTNYADSVKGRFTISRDNAKNTVYLQMNSLQPEDTAVYYCAGGNPFYDSIGYDYWGQGTQVTVSS,low polyreactivity
3,QVQLVESAGGLVQAGGSLRLSCAASGFIFDVYAMGWYRQAPGKERELVAAISVSSTNYADSVKGRFTISRDNAKNTVYLQMNSLKPEDTAVYYCAADTYTYFLASYLYGQYDYWGQGTQVTVSS,low polyreactivity
4,QVQLVESAGGLVQAGGSLRLSCAASGFIFPRYAMGWYRQAPGKERELVAAISYSGGSTYYADSVKGRFTISRDNAKNTVYLQMNSLKPEDTAVYYCNAYFLSQYQRAYRDDYWGQGTQVTVSS,high polyreactivity
5,QVQLVESAGGLVQAGGSLRLSCAASGFTFVYYVMGWYRQAPGKERELVAAINAGGGSTYYADSVKGRFTISRDNAKNTVYLQMNSLIPEDTAVYYCIARVRVRLGRNWSSYYDWGQCTQVTVSS,high polyreactivity
6,QVQLVESAGGLVQAGGSLRLSCAASGIIFVENAMGWYRQAPGKERELVAAISWDGGSTYYADSVKGRFTISRDNAKNTVYLQMNSLNPEDTAVYYCAADLTISYSQEYYYWGQGTQVTVSS,low polyreactivity
7,QVQLVESAGGLVQAGGSLRLSCAASGLIFAVYAKGLYRQAPGKEREFLAAITGTGSSTYYADSVKGRFTISRDNAKNTVYLQMNSLKPEDTAVYYCNAYVYDWIPYYHIDHDYWGQGTQVTVSS,low polyreactivity
8,QVQLVESAGGLVQAGGSLRLSCAASGLIFEYNAMGWYRQAPGKERELVAAITTNGGSTYYADSVKGRFTISRDNAKNTVYLQINSLKPEDTAVYYCAALGLHQVIEYDYWGQGTQVTVSS,low polyreactivity
9,QVQLVESAGGLVQAGGSLRLSCAASGRIFPRYAMGWYRQAPGKERELVAAINTSGGRTYYADSVKGRFTISRDYAKNTVYLQMNSLKPEDTAVYFCAADYRSRYDYWGQGTQVTVSS,high polyreactivity
10,QVQLVESAGGLVQAGGSLRLSCAASGRIFTNNAMGWYRQAPGKERELVAAISRSGGRTYYADTVKGRFTISRDNAKNTVYVQMNSLKPEDTAVSYCAALGPYGSARRKYGYWGQGTQVTVSS,high polyreactivity
11,QVQLVESAGGLVQAGGSLRLSCAASGRIFWDYAMGWYRQAPGKERELVATITQNDGSTYYADSVKGRFTISRDNAKNTVYLQMNSLKPEDTAVYYCAAYLLGWFTIKYDYGGQGTQVTVSS,low polyreactivity
12,QVQLVESAGGLVQAGGSLRLSCAASGRTFDAYAMGWYRQAPGKERELVATITSGGGTYYADSVKGRFTISRDNAKNTVYLLMNSLTPEDTAVYYCNKRYVVSRKYDYWGQGTQVTVSS,low polyreactivity
13,QVQLVESAGGLVQAGGSLRLSCAASGRTFGGYAMGWYRQAPGKERELVASITSGGSTYYADSVKGRFTISRDNAKNTVYLEMNSLKPEDTAVYYCAADTYFETSTRAIPSNDYWGQGTQVTVSS,low polyreactivity
14,QVQLVESAGGLVQAGGSLRLSCAASGRTFIGNAMGWYRQAPAKERELVAGISYRGGSTYYADSVKGRFSFSRDNAKNTVYLQMNSLKPEDTAVYYCAAPGRGGYYYWGQGTQVTVSS,high polyreactivity
15,QVQLVESAGGLVQAGGSLRLSCAASGRTFTCNAMGWYRQAPGKERELVAAISYSGGSTYYADSVKGRFTISRDNAKNTVYLQMNSLKPEDTAVYNCAVLGTPYGLNDYWGQGTQVTVSS,high polyreactivity
16,QVQLVESAGGLVQAGGSLRLSCAASGRTLTFKTMGWYRQAPGKERELVAGISYSGGSTYYADSVKGRFTISRDNAKNTVYLQMNSLKPEDTAVYYCNAVRVYRRRYDSWGQGTKVTVSS,high polyreactivity
17,QVQLVESAGGLVQAGGSLRLSCAASGSIFPFYAMRWYRQAPGKERELVATINFSGGSTYYADSVKGRFTISRDNAKNTVYLQMNSLKPEDTAVYYCAASYGAKYIVLYDYWGQGTQVTVSS,low polyreactivity
18,QVQLVESAGGLVQAGGSLRLSCAASGSIFPWNAMGWYRQAPGKERELVAAISYSGTRTYYADSVKGRFTISRDNAKNTVYLQMNSLKPVDTAVYYCNARGYTRSYVKYDYWGQGTQVTVSS,high polyreactivity
19,QVQLVESAGGLVQAGGSLRLSCAASGSIFQGNARGWYRQAPGKERELVAAISQSGGRTYYADSVKGRFTISRDNAKNTVYLQMISLKPEDTAVYYCNTTKVYRLRFDYWGQGTQVTVSS,low polyreactivity
20,QVQLVESAGGLVQAGGSLRLSCAASGSIFSTYVMGWYRQAPGKERELVAAISRRGGSTYYADSVKGRFTISRDNAKNTVYLQMNSLKPEDTAVSYCAADGTVGRRDYWGQGTQVTVSS,high polyreactivity
21,QVQLVESAGGLVQAGGSLRLSCAASGSIFYGNAMGWYRQAPGKERELVASITYSGGTTNYADSVKGRFTISRDTAKNTVYLQMNSLKPEDTAVYYCAADAIPDSVWYWEYDYWGQGTQVTVSS,low polyreactivity
22,QVQLVESAGGLVQAGGSLRLSCAASGSIFYYYAMGWYRQAPGKERELVATISSSSGSTYYADSVKGRFTISRDNAKYTVYLQMNRLKPEDTAVYYCATVSGSVWQRWVYANYDFWGQGTQVTVSS,low polyreactivity

row,Sequence,polyreactivity (PSR sort gate)
1,QVQLVESAGGLVQAGGSLRLSCAASGSIIADNAMGWDRQSPGTERELVAAITGGDSTYYADSVKGRFTISRDNAKNTVYLQMNSLKPEDTAVYYCNADRFRGRTVDGDYWGQGTQVTVSS,low polyreactivity
2,QVQLVESAGGLVQAGGSLRLSCAASGSISGYAMGWYRQAPGKQRELVAAISRRGGSTYYADSVKGRFTISRDNEKNTVYLQMNSLKPEDTAVYFCAADPYTRQPNSDRYYWGQGTQVTVSS,high polyreactivity
3,QVQLVESAGGLVQAGGSLRLSCAASGSTFDYYAMGWYRQAPGKERELVASITWGDGSTYYADSVKGRFTISRDNAKNTVYLQMNSLKPEDTAVYYCNADDTQLESYAPGHGYDYWGQGTQVTVSS,low polyreactivity
4,QVQLVESAGGLVQAGGSLRLSCAASGSTFPFYAMGWYRPAPGKERELVAAISASGVRTYYADSVKGRFTISRDNAKNTVYLQMNSLKPEDTAVDYCNRVYSTSRITQYEFDYWGQGTQVTVSS,low polyreactivity
5,QVQLVESAGGLVQAGGSLRLSCAASGSTFPKYAMGWSRQAPGKERELVASISVTTGSTYYADSVKGRFTISRDNAKNTVYLQMNSLKPEDTAVYYCAKRTYSRKFRGAYNYGGQGTQVTVSS,high polyreactivity
6,QVQLVESAGGLVQAGGSLRLSCAASGSTFQSYAMGWYRQAPGKDRELVAAISSGGITYYADSVKGRFTISRDNAKNTVYLQMTSLIPEDTAVYYCAKVPTYLIYNRYSRYDYWGQGTQVTVSS,low polyreactivity
7,QVQLVESAGGLVQAGGSLRLSCAASGSTFSRYAMGWSRQAPGNERELVAAISSGGNTYDADSVKGRFTISRDNAKNTVYLQMNSLKPEDTPVYYCIADRYTWYPWTKCFYYWGQGTHVTVSS,high polyreactivity
8,QVQLVESAGGLVQAGGSLRLSCAASGSTFSYNAMGWYRQAPGKEREFVAAISSRGGNTFYADSVKGRFTISRDNAKNTVYLQMNSLKPEDTAVYYCAARFNRPYDYWGQGTQVTVSS,low polyreactivity
9,QVQLVESAGGLVQAGGSLRLSCAASGSTFYFNAMGWYRQAPGKERELVAAISGGGGTNYADSVKGRFTISRDNAKNTVYLQMTSLKPEDTAVYYCAARNRGLRLSNYFGGNYNRDYWGQGTQVTVSS,low polyreactivity
10,QVQLVESAGGLVQAGGSLRLSCAASGSTFYLNAMGWYRQAPGKERELVATINSSGSTYYADSVKGRFTISRDNAKNTVYLQMNSLKPEDTAVYYCNTVDSYVRSDYWGQGTQVPVSS,low polyreactivity
11,QVQLVESAGGLVQAGGSLRLSCAASGSTFYRYAMGGSRQAPGKERELVAAISSSGGRTYYADSVKGRFTISRDNAKNTVYLQMNSLKPEDTAVYFCATRVGDFHRGKRKRYEYWGQGTQVTVSS,high polyreactivity
12,QVQLVESAGGLVQAGGSLRLSCAASGSTFYRYAMGWYRQAPGKERELVAAISTRGGSTYYADSVKGRFTISRDNAKNTVYLQMNSLKPEDTAVYYCAAKSGSPDDYDYWGQGTQVTVSS,high polyreactivity
13,QVQLVESAGGLVQAGGSLRLSCAASGSTFYTYAMGWYRQAPGKERELVAAISWSGGSTYYADSVKGRFTISRDNAKNSVYLQMNSLKPEDTAVYYCAARRVKYISLDYWGQGTQVTVSS,low polyreactivity
14,QVQLVESAGGLVQAGGSLRLSCAASGSTYTSYAMGWYRQAPGKERELVAAITRNGGTTYYADSVKGRFTLSRDNAKNTVYLQMNSLKPEDTAVYYCNAPHYYYITSDRRFDYWGQGTQVTVSS,low polyreactivity
15,QVQLVESAGGLVQAGGSLRLSCAASGTIFALYAMGWYRQAPGKERELVARITRGGGSTYYADSVKGRFTISRDNAKNTVYLQMNSLKPEDTAVYYCAAARWSQYRTWMNYWGQGTQVTVSS,high polyreactivity
16,QVQLVESAGGLVQAGGSLRLSCAASGYIFSDNTMGWYRQAPGKERELVAVITSGTSTSYADSVKGRFTISRDNAKNTVYLQMNSLKPEDSAVYYAARTGQYKTYGEYDYWGQGTQVTVSS,low polyreactivity
17,QVQLVESAGGLVQAGGSLRLSCAATGLIFKYYAMVWYRQAPGKEREMVATITRGGGSTYYADSVKGRFTISRDNAKNTVYFQMNSLKPEDTAVYYCAKRTSWKYGYWGQGTQVTVSS,high polyreactivity
18,QVQLVESAGGLVQAGGSLRLSCADSGSIFRYYAMGWYRQAQGQERELVAAISYSGGRTYYADSVKGRFTISRDNAKNTVYLQMNSLKPEDTAVYYCNAGAGKRGYDYWGQGTQVTVSS,low polyreactivity
19,QVQLVESAGGLVQAGGSLRLSCAPSGFIFKHNAMGWYRQAPGKERECVAAISWSGDSTYYADSVKGRFTISRDNAKNTVYLQMNSLKPEDTAVYYCAAVRALRKVRDYYYWGQGTQVTVSS,high polyreactivity
20,QVQLVESAGGLVQAGGSLRLSCAPSGSIFVAYAMGGYLQAPGKERELVAAISWRSGSTYYADSVKGRFTISRDNAKNTVYLQMNSLKPEDTAVYYSAAKQDQDYYWGQGTQVTVSS,low polyreactivity
21,QVQLVESAGGLVQAGGSLRLSCPASGGIFSWYHMGWYRQEPGKERELVAAISWSGGSTYYADSVKGRFTISRDNAKNTVYLLMNSLKPEDTAVYYCADYTADDYDYWGQGTQVTVSS,high polyreactivity
